Results published in the RNAGym collection of RNA variant scans (doi:10.1021/acssynbio.7b00057).

B1: Pistol ribozyme (parent)
chain: GGGUCGUUGUUCCAUAAUCGCGUGGAUAUGGCACGCAAGUUUCUACCGGGCACCGUAAAUGUCCGACUGGAGCCGUUCGGGCGGCUAUAAACAGACCUCAGGCCCGAAGCGUGGCGGCACCUGCCGCCGGUGGUAAAAAAGAUCGGAAGAGCACACGUCU

Variants of: B1
Test: aptazyme ON/OFF ratio, guanine; higher = stronger switching; co-transcriptional cleavage with and without guanine

Variant | aptazyme ON/OFF ratio
U7C G9C U10G C12U C13A | 1.11
U7C G9C U11A C12A C13U | 1.04
U7C G9C U11A C12A C13G | 1.07
U7C G9C U11A C12A C13A | 1.08
U7C G9C U10G U11G | 1.11
U7C G9C U10G U11A | 1.09
U7C G9C U10G U11C | 1.05
U7C G9C U10C C13G | 1.04
U7C G9C U10C C13A | 1.04
U7C G9C U10C C13U | 1.08
U7C G9C U11A C13G | 1.04
U7C G9C U11A C13U | 1.02
U7C G9C U11A C13A | 1.03
U7C G9C U10A U11G C12G | 1.29
U7C G9C U10A U11G C12U | 1.05
U7C G9C U10A U11G C12A | 1.11
U7C G9C U10C U11G C13G | 1.05
U7C G9C U10C U11G C13A | 1.12
U7C G9C U10C U11G C13U | 1.19
U7C G9C U10A U11C C13G | 1.03
U7C G9C U10A U11C C13A | 1.02

Variant | aptazyme ON/OFF ratio
U7C G9C U10A U11C C13U | 1.02
U7C G9C U10G U11A C13U | 1.11
U7C G9C U10G U11A C13A | 1.17
U7C G9C U10G U11A C13G | 1.05
U7C G9C U10C U11G C12A C13G | 1.05
U7C G9C U10C U11G C12A C13A | 1.14
U7C G9C U10C U11G C12A C13U | 1.04
U7C G9U U10A U11A C12A C13A | 1.3
U7C G9U U10A U11A C12A C13G | 1.1
U7C G9U U10A U11A C12A C13U | 1.18
U7C G9U U10A U11A C13G | 1.04
U7C G9U U10A U11A C13A | 1.26
U7C G9U U10A U11A C13U | 1.25
U7C G9C U11C C12A C13A | 1.02
U7C G9C U11C C12A C13U | 1.05
U7C G9C U11C C12A C13G | 1.02
U7C G9C U10G U11C C12U | 1.11
U7C G9C U10G U11C C12A | 1.19
U7C G9C U10G U11C C12G | 1.25
U7C G9C U10A C12U C13A | 1.08
U7C G9C U10A C12U C13G | 1.07

Variant | aptazyme ON/OFF ratio
U7C G9C U10A C12U C13U | 1.04
U7C G9U U10A | 1.32
U7C G9C U10C U11A C12U C13U | 1.03
U7C G9C U10C U11A C12U C13G | 1.07
U7C G9C U10C U11A C12U C13A | 1.03
U7C G9C U10C C12A C13A | 1.06
U7C G9C U10C C12A C13U | 1.04
U7C G9C U10C C12A C13G | 1.06
U7C G9C U10C U11A C12A C13A | 1.08
U7C G9C U10C U11A C12A C13G | 1.05
U7C G9C U10C U11A C12A C13U | 1.05
U7C G9U U10A C12A C13A | 1.37
U7C G9U U10A C12A C13U | 1.36
U7C G9U U10A C12A C13G | 1.14
U7C G9C U10G U11G C12U C13A | 1.07
U7C G9C U10G U11G C12U C13U | 1.12
U7C G9C U10G U11G C12U C13G | 1.13
U7C G9C U10G C12A C13A | 1.15
U7C G9C U10G C12A C13U | 1.12
U7C G9C U10G C12A C13G | 1.14
U7C G9C U10G U11G C12G C13G | 1.11

Variant | aptazyme ON/OFF ratio
U7C G9C U10G U11G C12G C13U | 1.09
U7C G9C U10G U11G C12G C13A | 1.08
U7C G9C U10A U11C C12G C13A | 1.07
U7C G9C U10A U11C C12G C13G | 1.27
U7C G9C U10A U11C C12G C13U | 1.17
U7C G9C C13G | 1.05
U7C G9C C13U | 1.01
U7C G9C C13A | 1.03
U7C G9C U10A U11G C12G C13U | 1.13
U7C G9C U10A U11G C12G C13G | 1.09
U7C G9C U10A U11G C12G C13A | 1.1
U7C G9C U10C U11C C12U C13U | 1.01
U7C G9C U10C U11C C12U C13A | 1.03
U7C G9C U10C U11C C12U C13G | 1.02
U7C G9C U10G C12G C13A | 1.11
U7C G9C U10G C12G C13U | 1.1
U7C G9C U10G C12G C13G | 1.07
U7C G9C U11A | 1.03
U7C G9C U11C | 1.03
U7C G9C U11G | 1.06
U7C G9C U10A U11G C13A | 1.09
